Measured values published in patent publication US20190365916A1 (Bayer, published 2019).
Substitutions are numbered along the chain they refer to.

T1: receptor protein CXCR5 (CD185) (human, UniProt P32302 1-372)
T1 sequence: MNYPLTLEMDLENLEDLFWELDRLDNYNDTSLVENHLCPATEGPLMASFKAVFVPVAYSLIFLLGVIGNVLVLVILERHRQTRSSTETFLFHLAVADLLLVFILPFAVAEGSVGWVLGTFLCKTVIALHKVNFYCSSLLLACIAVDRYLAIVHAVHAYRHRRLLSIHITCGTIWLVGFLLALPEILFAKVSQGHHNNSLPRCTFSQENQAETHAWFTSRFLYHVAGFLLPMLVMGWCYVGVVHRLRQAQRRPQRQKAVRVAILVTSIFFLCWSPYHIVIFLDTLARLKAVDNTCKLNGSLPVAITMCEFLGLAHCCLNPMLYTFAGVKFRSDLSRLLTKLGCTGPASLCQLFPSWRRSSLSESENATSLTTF

B1: ADC Example 1c-8988 (anti-CD123 TPP-8988 coupled with Intermediate F325) (antibody, human IgG1, kappa, V domains shown)
VH: EVQLLESGGGLVQPGGSLRLSCAVSDYSITSGYYWNWIRQAPGKKLEWMGYISYDGSNNYNPSLKNGRITISRDTSKNTFYLQMNSLRAEDTAVYYCARGEGFYFDSWGQGTLVTVSS
VL: EIVLTQSPGTLSLSPGERATLSCKSSQSLFFGSTQKNYLAWYQQKPGQAPRLLIYWASTRESGIPDRFSGSGSGTDFTLTISRLEPEDFAVYYCQQYYNYPWTFGQGTKLEIKR
modifications: KSP inhibitor toxophore-linker of formula (I) (from Intermediate F325) on sulfur atoms of cysteine side chains of the partially reduced antibody; DAR 3.5; positions not given
B2: ADC Example 1c-8987 (anti-CD123 TPP-8987 coupled with Intermediate F325) (antibody, human IgG1, kappa, V domains shown)
VH: QVQLVQSGAEVKKPGSSVKVSCKASGGTFSDYYMKWVRQAPGQGLEWMGDIIPSNGATFYNQKFKGQVTITADESTSTAYMELSSLRSEDTAVYYCARSHLLRASWFAYWGQGTLVTVSS
VL: DIVMTQSPDSLAVSLGERATINCESSQSVLNSGNQKNYLTWYQQKPGQPPKLLIYWASTRESGVPDRFSGSGSGTDFTLTISSLQAEDVAVYYCQNDYSYPYTFGQGTKLEIKR
modifications: KSP inhibitor toxophore-linker of formula (I) (from Intermediate F325) on sulfur atoms of cysteine side chains of the partially reduced antibody; DAR 3.7; positions not given
B3: ADC Example 1c-9476 (anti-CD123 TPP-9476 coupled with Intermediate F325) (antibody, human IgG1, kappa, V domains shown)
VH: B2 VH with Q67R
VL: B2 VL
modifications: KSP inhibitor toxophore-linker of formula (I) (from Intermediate F325) on sulfur atoms of cysteine side chains of the partially reduced antibody; DAR 3.1; positions not given
B4: ADC Example 1x-9574 (anti-CXCR5 TPP-9574 coupled with Intermediate F325) (antibody, human IgG1, kappa, V domains shown)
VH: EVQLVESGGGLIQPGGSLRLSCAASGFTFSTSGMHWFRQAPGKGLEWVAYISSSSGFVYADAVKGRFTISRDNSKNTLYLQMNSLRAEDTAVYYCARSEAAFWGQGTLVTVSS
VL: DIVMTQSPLSLPVTPGEPASISCRSQKSRLSRMGITPLNWYLQKPGQSPQLLIYRMSNLASGVPDRFSGSGSGTDFTLKISRVEAEDVGVYYCAQFLEYPPTFGQGTKLEIKR
modifications: KSP inhibitor toxophore-linker of formula (I) (from Intermediate F325) on sulfur atoms of cysteine side chains of the partially reduced antibody; DAR 4.1; positions not given
B5: ADC Example 1x-9580 (anti-CXCR5 TPP-9580 coupled with Intermediate F325) (antibody, human IgG1, kappa, V domains shown)
VH: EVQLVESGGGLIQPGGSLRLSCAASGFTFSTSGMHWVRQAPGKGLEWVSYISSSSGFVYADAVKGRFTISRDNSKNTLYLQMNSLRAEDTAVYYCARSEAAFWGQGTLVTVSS
VL: B4 VL
modifications: KSP inhibitor toxophore-linker of formula (I) (from Intermediate F325) on sulfur atoms of cysteine side chains of the partially reduced antibody; DAR 4.2; positions not given
B6: ADC Example 1x-9024 (anti-CXCR5 TPP-9024 coupled with Intermediate F325) (antibody, human IgG1, kappa, V domains shown)
VH: EVQLVESGGGLVQPGKSLKLSCSASGFTFSTSGMHWFRQAPGKGLDWVAYISSSSGFVYADAVKGRFTISRDNAQNTLYLQLNSLKSEDTAIYYCARSEAAFWGQGTLVTVSS
VL: DIVLTQAPRSVSVTPGESASISCRSNKSRLSRMGITPLNWYLQKPGKSPQLLIYRMSNLASGVPDRFSGSGSETDFTLKISKVETEDVGVYYCAQFLEYPPTFGSGTKLEIKR
modifications: KSP inhibitor toxophore-linker of formula (I) (from Intermediate F325) on sulfur atoms of cysteine side chains of the partially reduced antibody; DAR 3.8; positions not given
B7: reference ADC R1c-8988 (anti-CD123 TPP-8988 coupled with Intermediate F104) (antibody, human IgG1, kappa, V domains shown)
VH: B1 VH
VL: B1 VL
modifications: reference KSP inhibitor toxophore-linker (from Intermediate F104) on sulfur atoms of cysteine side chains of the partially reduced antibody; DAR 3.4; positions not given
B8: reference ADC R1c-8987 (anti-CD123 TPP-8987 coupled with Intermediate F104) (antibody, human IgG1, kappa, V domains shown)
VH: B2 VH
VL: B2 VL
modifications: reference KSP inhibitor toxophore-linker (from Intermediate F104) on sulfur atoms of cysteine side chains of the partially reduced antibody; DAR 1.5; positions not given
B9: reference ADC R1c-9476 (anti-CD123 TPP-9476 coupled with Intermediate F104) (antibody, human IgG1, kappa, V domains shown)
VH: B2 VH with Q67R
VL: B2 VL
modifications: reference KSP inhibitor toxophore-linker (from Intermediate F104) on sulfur atoms of cysteine side chains of the partially reduced antibody; DAR 3.1; positions not given
B10: reference ADC R1x-9574 (anti-CXCR5 TPP-9574 coupled with Intermediate F104) (antibody, human IgG1, kappa, V domains shown)
VH: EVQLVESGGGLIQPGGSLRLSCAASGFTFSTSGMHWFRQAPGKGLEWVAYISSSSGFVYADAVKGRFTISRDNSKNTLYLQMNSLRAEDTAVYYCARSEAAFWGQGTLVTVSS
VL: B4 VL
modifications: reference KSP inhibitor toxophore-linker (from Intermediate F104) on sulfur atoms of cysteine side chains of the partially reduced antibody; DAR 3.9; positions not given
B11: reference ADC R1x-9580 (anti-CXCR5 TPP-9580 coupled with Intermediate F104) (antibody, human IgG1, kappa, V domains shown)
VH: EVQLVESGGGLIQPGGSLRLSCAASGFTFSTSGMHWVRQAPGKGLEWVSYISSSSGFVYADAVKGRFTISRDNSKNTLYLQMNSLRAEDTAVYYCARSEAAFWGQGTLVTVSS
VL: B4 VL
modifications: reference KSP inhibitor toxophore-linker (from Intermediate F104) on sulfur atoms of cysteine side chains of the partially reduced antibody; DAR 3.7; positions not given
B12: reference ADC R1x-9024 (anti-CXCR5 TPP-9024 coupled with Intermediate F104) (antibody, human IgG1, kappa, V domains shown)
VH: B6 VH
VL: B6 VL
modifications: reference KSP inhibitor toxophore-linker (from Intermediate F104) on sulfur atoms of cysteine side chains of the partially reduced antibody; DAR 3.7; positions not given
B13: anti-CD123 antibody TPP-8988 (antibody, human IgG1, kappa, V domains shown)
VH: B1 VH
VL: B1 VL
notes: Humanized anti-CD123 IgG; In the internalization assays it carried CypHer 5E dye on lysines
B14: anti-CD123 antibody TPP-8987 (antibody, human IgG1, kappa, V domains shown)
VH: B2 VH
VL: B2 VL
notes: as for B13
B15: anti-CD123 antibody TPP-9476 (antibody, human IgG1, kappa, V domains shown)
VH: B2 VH with Q67R
VL: B2 VL
notes: as for B13
B16: anti-CXCR5 antibody TPP-9574 (antibody, human IgG1, kappa, V domains shown)
VH: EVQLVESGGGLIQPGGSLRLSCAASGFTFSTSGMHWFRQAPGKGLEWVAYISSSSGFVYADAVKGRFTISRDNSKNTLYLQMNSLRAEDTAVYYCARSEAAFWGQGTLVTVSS
VL: B4 VL
notes: Humanized anti-CXCR5 IgG; In the internalization assays it carried CypHer 5E dye on lysines
B17: anti-CXCR5 antibody TPP-9580 (antibody, human IgG1, kappa, V domains shown)
VH: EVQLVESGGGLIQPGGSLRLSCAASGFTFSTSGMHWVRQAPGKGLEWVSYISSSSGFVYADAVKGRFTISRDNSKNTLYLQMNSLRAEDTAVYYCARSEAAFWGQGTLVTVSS
VL: B4 VL
notes: as for B16
B18: anti-CXCR5 antibody TPP-9024 (antibody, human IgG1, kappa, V domains shown)
VH: B6 VH
VL: B6 VL
notes: In the internalization assays it carried CypHer 5E dye on lysines

Biological target: T2, surface receptor CD123 (IL3RA) (human, UniProt P26951 19-378)
T2 sequence (P26951 19-378 limits assumed): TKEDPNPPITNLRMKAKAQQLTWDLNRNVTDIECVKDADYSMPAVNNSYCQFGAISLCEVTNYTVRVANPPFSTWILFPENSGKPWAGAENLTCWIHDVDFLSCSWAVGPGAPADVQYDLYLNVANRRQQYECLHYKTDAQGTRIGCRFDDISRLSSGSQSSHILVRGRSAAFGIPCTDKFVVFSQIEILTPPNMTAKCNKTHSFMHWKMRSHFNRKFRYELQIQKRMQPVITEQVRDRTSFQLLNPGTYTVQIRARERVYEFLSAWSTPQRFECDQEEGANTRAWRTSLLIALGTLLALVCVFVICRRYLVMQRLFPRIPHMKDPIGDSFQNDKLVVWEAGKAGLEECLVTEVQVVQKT
Test: cell-based or functional assay

Binder	IC50 [M] of growth inhibition, MTT assay, MOLM-13 cells (CD123-positive) [M]	IC50 [M] of growth inhibition, MTT assay, MV-4-11 cells (CD123-positive) [M]
B1	3.02e-11	2.94e-08
B2	2.1e-10	1.26e-09
B3	2.85e-10	2.78e-09

Biological target: T1, receptor protein CXCR5 (CD185)
Test: cell-based or functional assay

Binder	IC50 [M] of growth inhibition, MTT assay, Rec-1 cells (CXCR5-positive) [M]
B4	2.94e-11
B5	2.78e-09
B6	1.34e-10

Biological target: T2, surface receptor CD123 (IL3RA)
Test: cell-based or functional assay
Remark: another data set of the same source

Binder	IC50 [M] of growth inhibition, MTT assay, MOLM-13 cells (CD123-positive) [M]	IC50 [M] of growth inhibition, MTT assay, MV-4-11 cells (CD123-positive) [M]
B7	4.26e-09	3.27e-08
B8	7.57e-08	1.33e-07
B9	3.04e-10	5.3e-09

Biological target: T1, receptor protein CXCR5 (CD185)
Test: cell-based or functional assay
Remark: another data set of the same source

Binder	IC50 [M] of growth inhibition, MTT assay, Rec-1 cells (CXCR5-positive) [M]
B10	2.62e-10
B11	7.16e-11
B12	1.84e-10

Biological target: T2, surface receptor CD123 (IL3RA)
Test: cell binding assay, CypHer 5E-labelled against unlabelled antibody

Binder	binding result
B13	binds
B14	binds
B15	binds

Biological target: T1, receptor protein CXCR5 (CD185)
Test: as above

Binder	binding result
B16	binds
B17	binds
B18	binds
